Assay results from JP2014150761A (dated 2014).
Residue numbers refer to the chain shown, from its start. Names may count otherwise.

Legend:
[1] = molecular target: T1, mouse beta-NGF (R&D Systems) (mouse, UniProt P01139 122-241); assay: cell-based or functional assay
[2] = molecular target: T2, human beta-NGF (R&D Systems) (human, UniProt P01138 122-241); assay: screening by Examples 3 to 8 (NGF-trkA binding inhibition ELISA, cell assays)
T2 construct: It was unlabelled in the ITC, DLS and cell assays; also called ヒトβNGF; ヒトNGF

[3] = molecular target: T1, mouse beta-NGF (R&D Systems); assay: competition ELISA with biotin-mouse βNGF on immobilised trkA (Example 4)
[4] = molecular target: T2, human beta-NGF (R&D Systems); assay: cell-based or functional assay
[5] = molecular target: T2, human beta-NGF (R&D Systems); assay: papain Fab tested by Examples 3, 6 and 7
[6] = molecular target: T2, human beta-NGF (R&D Systems); assay: competition ELISA: inhibition of biotin-human βNGF binding to immobilised human trkA (Example 3)
[7] = molecular target: T2, human beta-NGF (R&D Systems); assay: isothermal titration calorimetry in PBS: 44 μM human βNGF titrated into 1.5 μM Tanezumab, single site binding model

B1: PEGylated 1-15(N52D)-Fab' (Fab, V domains shown)
VH: QVQLQQWGAGLLKPSETLSLTCAVYGGSFSGYYWSWVRQPPGKGLEWIGEIDHSGSTNNNPSLKSRVTISVGTSKNQFSLKLSSVTAADTAVYYCSRDGGPESGMGAFDIWGQGTMVTVSS
VL: not shown
modifications: 40 kDa PEG (SUNBRIGHT GL2-400MA, maleimide) on the C-terminal Cys (EU C226; Cys 230 of SEQ ID NO 10)
IC50, neutralizing activity by the method of Example 6 (Ca2+ rise, HEK293 cells expressing human trkA) [1]: 0.069 µg/mL | fold stronger neutralizing activity than Tanezumab (method of Example 6) [1]: ~3.3 fold

B2: 1-15 antibody (chimeric antibody) (antibody, V domains shown)
VH: B1 VH with D52N
VL: not shown
notes: also called 1−15と命名した抗体(キメラ抗体)
binding result [2]: binds | binding result [3]: binds

B3: 1-15(N52D-A)-Fab'-10kPEG (Fab, V domains shown)
VH: B1 VH
VL: not shown
modifications: 10 kDa PEG (SUNBRIGHT GL2-100MA) bound by the procedure of Example 13 (hinge Cys)
IC50, neutralizing activity by the method of Example 6 (final NGF concentration 50 ng/ml) [4]: 0.028 µg/mL

B4: 1-15(N52D-A)-Fab'-5kPEG (Fab, V domains shown)
VH: B1 VH
VL: not shown
modifications: 5 kDa PEG (SUNBRIGHT GL2-50MA) bound by the procedure of Example 13 (hinge Cys)
IC50, neutralizing activity by the method of Example 6 (final NGF concentration 50 ng/ml) [4]: 0.03 µg/mL

B5: Fab fragment of the 1-15 antibody (papain digest) (Fab, V domains shown)
VH: B1 VH with D52N
VL: not shown
notes: also called 1-15 Fab; 1価の抗体フラグメント
binding result [5]: binds

B6: Tanezumab (antibody, V domains shown)
VH: QVQLQESGPGLVKPSETLSLTCTVSGFSLIGYDLNWIRQPPGKGLEWIGIIWGDGTTDYNSAVKSRVTISKDTSKNQFSLKLSSVTAADTAVYYCARGGYWYATSYYFDYWGQGTLVTVSS
VL: DIQMTQSPSSLSASVGDRVTITCRASQSISNNLNWYQQKPGKAPKLLIYYTSRFHSGVPSRFSGSGSGTDFTFTISSLQPEDIATYYCQQEHTLPYTFGQGTKLEIKR
IC50 [6]: 0.41 µg/mL | Kd [7]: 20.4 nM | IC50, neutralizing activity by the method of Example 6 (Ca2+ rise, HEK293 cells expressing human trkA) [4]: 0.17 µg/mL | IC50, neutralizing activity by the method of Example 6 (Ca2+ rise, HEK293 cells expressing human trkA) [1]: 0.23 µg/mL
